From patent US20240207421A1, “NERVE TARGETING PEPTIDES AND METHODS OF USE” (ALUME BIOSCIENCES, INC., priority 2020, published 2024)

Molecular target: T1, Human Myelin Basic Protein (Homo sapiens, UniProt P02686)
Experiment: phage display, NGS count
Settings: not given
Target sequence in this assay (P02686 135-304 limits assumed): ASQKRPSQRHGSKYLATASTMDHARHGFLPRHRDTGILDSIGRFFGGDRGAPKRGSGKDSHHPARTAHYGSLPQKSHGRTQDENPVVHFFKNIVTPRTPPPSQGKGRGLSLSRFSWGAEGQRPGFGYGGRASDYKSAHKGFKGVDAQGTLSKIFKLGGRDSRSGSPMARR

Row | Substance | Count
1 | WSPRWPS (peptide) | 7
2 | SYRSMAP (peptide) | 6
3 | SSFYVAY (peptide) | 6
4 | FSAGVGK (peptide) | 7
5 | NSSPHQI (peptide) | 7
6 | LFRRVTE (peptide) | 7
7 | GEPALVT (peptide) | 6
8 | SYTLSRS (peptide) | 7
9 | YLPPPLP (peptide) | 7
10 | SWFESHN (peptide) | 8
11 | HFLRPSD (peptide) | 7
12 | SLKTTNP (peptide) | 6
13 | HPWSHPN (peptide) | 6
14 | LPPQISR (peptide) | 8
15 | SNAHTLP (peptide) | 6
16 | MQRLGAD (peptide) | 6
17 | SPKPDIP (peptide) | 6
18 | INFPFAV (peptide) | 6
19 | AILTRPP (peptide) | 7
20 | SIRMTEI (peptide) | 7
21 | NGVSSSL (peptide) | 6
22 | QKALPQT (peptide) | 6
23 | WSLPLLS (peptide) | 7
24 | NFAQHMQ (peptide) | 9
25 | THKHMMT (peptide) | 6
26 | AQLGAFR (peptide) | 6

Row | Substance | Count
27 | NGPNSLQ (peptide) | 6
28 | GPITHAI (peptide) | 7
29 | SPPRFIP (peptide) | 8
30 | TPVRLNT (peptide) | 6
31 | TPVLWLP (peptide) | 6
32 | DVRIWTL (peptide) | 6
33 | YVNRVKQ (peptide) | 6
34 | GPRVTPH (peptide) | 6
35 | HQPLFPR (peptide) | 6
36 | SVGLPTK (peptide) | 6
37 | IILPSAQ (peptide) | 8
38 | SLWQTLR (peptide) | 6
39 | SISKIRT (peptide) | 7
40 | WDLPQNR (peptide) | 6
41 | AQFLTIY (peptide) | 6
42 | ALYNQMT (peptide) | 6
43 | TGSVSKQ (peptide) | 6
44 | HMAGVNQ (peptide) | 7
45 | NLKLWTR (peptide) | 7
46 | SEPGTVR (peptide) | 7
47 | SEGLTLL (peptide) | 6
48 | SGNLKKA (peptide) | 7
49 | IPYSQMP (peptide) | 6
50 | KGQPLFR (peptide) | 7
51 | TGPSSAV (peptide) | 6
52 | HTGLRSL (peptide) | 7

Row | Substance | Count
53 | FSARTNT (peptide) | 9
54 | FKLPWAS (peptide) | 7
55 | SKPHASH (peptide) | 6
56 | KMSLAPP (peptide) | 6
57 | TPQVMLK (peptide) | 8
58 | VSFTLEP (peptide) | 7
59 | HYSPNVM (peptide) | 9
60 | ASNTSKG (peptide) | 7
61 | QYWDILG (peptide) | 6
62 | HFYGPGP (peptide) | 9
63 | SIQTSAM (peptide) | 6
64 | LITHPQL (peptide) | 6
65 | LELHQNV (peptide) | 6
66 | ESKSPRE (peptide) | 6
67 | ETHYKIA (peptide) | 6
68 | HSSATMS (peptide) | 6
69 | FDLLARK (peptide) | 6
70 | NTPKVLA (peptide) | 10
71 | QQAHLQS (peptide) | 8
72 | HFTFFPI (peptide) | 6
73 | WVPDRSL (peptide) | 6
74 | LVPPVNH (peptide) | 6
75 | RGHPSQL (peptide) | 6
76 | HRTHLHQ (peptide) | 6
77 | NLTYLRF (peptide) | 6
78 | ALGTRPL (peptide) | 7

Row | Substance | Count
79 | HPWLGNR (peptide) | 9
80 | IPIPYRT (peptide) | 6
81 | SNAERWR (peptide) | 9
82 | HPTGTPT (peptide) | 7
83 | VGTFWTR (peptide) | 6
84 | KNSIAPR (peptide) | 8
85 | AISWKGF (peptide) | 6
86 | TPLYLSS (peptide) | 7
87 | YSSRLND (peptide) | 6
88 | GVAEVGL (peptide) | 6
89 | HAHWARL (peptide) | 6
90 | NPTDTNK (peptide) | 8
91 | HLLKTHS (peptide) | 7
92 | FLNQAPT (peptide) | 7
93 | TLLTALT (peptide) | 7
94 | VVDMSTY (peptide) | 7
95 | VLSPYHN (peptide) | 6
96 | ELKSLRF (peptide) | 6
97 | SKLAGFP (peptide) | 6
98 | SVEYGQL (peptide) | 9
99 | MDLSLKP (peptide) | 10
100 | RVIPSTT (peptide) | 6
101 | GRHTDVV (peptide) | 6
102 | VPTLRIP (peptide) | 8

Results, then the substance that gave them:

Row | Count | Substance
103 | 6 | AKFTMWV (peptide)
104 | 6 | GQWWKML (peptide)
105 | 6 | TPGRATL (peptide)
106 | 6 | LMLPQLE (peptide)
107 | 8 | TSRLVST (peptide)
108 | 6 | GSPYGWG (peptide)
109 | 7 | MPLLELP (peptide)
110 | 6 | QTSIMSG (peptide)
111 | 6 | ARVPNPL (peptide)
112 | 6 | RSRKHRP (peptide)
113 | 7 | MTNHGNA (peptide)
114 | 8 | NTSLSFK (peptide)
115 | 8 | TSPPLAH (peptide)
116 | 6 | ALRDTRV (peptide)
117 | 7 | HPDTLPQ (peptide)
118 | 6 | DSQEKSV (peptide)
119 | 7 | ESPYPHS (peptide)
120 | 10 | TQMTMDS (peptide)
121 | 7 | AVRQTTM (peptide)
122 | 7 | SLRSVGA (peptide)
123 | 6 | VIRTAAM (peptide)

Row | Count | Substance
124 | 6 | SRHLPPL (peptide)
125 | 6 | SAVLMPP (peptide)
126 | 7 | NMYPRVT (peptide)
127 | 6 | SLDHLRL (peptide)
128 | 6 | YPYVPIY (peptide)
129 | 6 | TTTQGHP (peptide)
130 | 6 | KVHHLAR (peptide)
131 | 8 | FVLPNKN (peptide)
132 | 8 | QNSYLSN (peptide)
133 | 7 | LTKSLNH (peptide)
134 | 6 | VRGTPNH (peptide)
135 | 8 | VAHQRVS (peptide)
136 | 6 | HQMRTML (peptide)
137 | 6 | FQLSYET (peptide)
138 | 6 | QGAYVRP (peptide)
139 | 7 | DVVKDVI (peptide)
140 | 6 | SSMRYNS (peptide)
141 | 7 | NLLQGVM (peptide)
142 | 8 | YATATPS (peptide)
143 | 7 | AAGQRSF (peptide)
144 | 9 | SRPTRVP (peptide)

Row | Count | Substance
145 | 7 | QGTLFDT (peptide)
146 | 6 | WTYHPTT (peptide)
147 | 7 | WPDLRIL (peptide)
148 | 7 | SSGMLSK (peptide)
149 | 6 | YPTYLSY (peptide)
150 | 6 | YTASPRW (peptide)
151 | 8 | MPSLKHQ (peptide)
152 | 6 | SLWTHRT (peptide)
153 | 6 | KIITTKS (peptide)
154 | 6 | IGTRWHQ (peptide)
155 | 6 | RTTDWWT (peptide)
156 | 6 | SYVTVFR (peptide)
157 | 7 | QPIDSTS (peptide)
158 | 7 | KYRHGAE (peptide)
159 | 8 | DSYLLSA (peptide)
160 | 6 | HSGPLLP (peptide)
161 | 6 | TIRVAHT (peptide)
162 | 6 | AIPPRKL (peptide)
163 | 6 | AGSLLSL (peptide)

Molecular target: T1, Human Myelin Basic Protein
Experiment: Phage display library screening (Example 2, Python script analysis), binding to Human Myelin Basic Protein
Design: Enzo 200-606-M001 from human; purchased Enzo 200-606-M001; host or cells: human brain (tissue-derived)
Settings: R3 Myelin Basic Protein; combined unique sequence count, Python/R script analysis
Experimental: Phage display library screens were used to identify peptides that bind to target proteins (including specific laminin trimers) that are expressed in human nerves, as described in Table 3. These screens were also carried out to identify peptides that could bind selectively to nerves versus muscle. Such peptides could therefore be useful for systemic in-vivo labeling of nerves during fluorescence assisted surgery. Specifically, m 13 phage libraries expressing 7 or 12 random amino acid peptides, or a cyclic peptide CX7C, on the N-terminus of the minor coat protein pIII (New England Biolabs; NEB) were processed through multiple rounds of selection for binding to target proteins expressed in nerves, or to excised human nerves, nerve extracts, or muscle, as described further below.
For screening against the specified target proteins in Table 1, including LN211, LN411, LN421, and LN521, the phage library was processed by up to 4 binding and wash cycles. For selection, phage libraries were incubated for up to 24 hours at 4° C. in 96 well plates that had been coated with one of the target proteins. Plates were then washed with PBS and phage were eluted using 0.2M glycine pH 2.0. Phage supernatants where then neutralized with Tris pH 9.0 prior to plating on TGI bacteria and LB agar plates. Colonies were counted to determine titer followed by DNA preparation of pools of phage and NextGen sequencing. After rounds of selection, phage were pooled and amplified for iterative selection. Phage that were bound at each round were sequenced. NextGen sequencing of pools after 2, 3 and 4 rounds of selection was used to isolate candidate sequences that were analyzed further to identify those that specifically bound each unique target protein.
Python Script Analysis: For all NEB sequence datasets, a python script was used to translate, trim, and filter the peptide sequences. The script translated the nucleotide sequences, translating amber codons as glutamine in peptide sequences, and then trimmed the end sequences that come from the vector. Secondly, the script combined the unique counts of trimmed peptides with identical sequences. […] Another python script was used to group peptides from different assays according to protein target (Myelin Protein Zero, Myelin Proteolipid Protein, Myelin Basic Protein, and Nidogen-2) and also combine the unique sequence counts for each peptide. An R script was written to merge the peptide sequences from different data files and determine peptides specific for each protein target but absent from different protein binding datasets. Peptide sequences were ranked by unique sequence count.
Target sequence in this assay (P02686 134-304): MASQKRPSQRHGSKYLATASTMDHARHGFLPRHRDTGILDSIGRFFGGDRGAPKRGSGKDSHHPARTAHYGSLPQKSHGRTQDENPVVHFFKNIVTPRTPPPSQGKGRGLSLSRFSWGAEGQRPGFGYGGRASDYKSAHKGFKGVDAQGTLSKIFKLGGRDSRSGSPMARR

Row | Substance | Count
164 | SRPTRVP (R3 Myelin Basic Protein-binding peptide) | 9
165 | SIQTSAM (R3 Myelin Basic Protein-binding peptide) | 6
166 | KGQPLFR (R3 Myelin Basic Protein-binding peptide) | 7
